Data from PMC6122969.

Target: HLA-A*02:01 on T2 cells (human (endogenous in T2))
Assay: flow cytometry on cells

time for which complexes with HLA-A*02:01 lasted [h] | Binder
> 4 | VIIKPLVWV [p55 peptide … from APCS]
> 4 | FLGPWPAAS [p14 peptide … from the LRPAP1 signal peptide]
> 4 | LTLLGTLWGA [p34 peptide … from PCDHGA6]
> 4 | SVLWLGALGL [p35 peptide … from C20orf141]
